{"source": "the supplement of paper PMC12042874", "note": "± gives the uncertainty stated by the source."}
{"test": "amyloid nucleation score (Sup35N fusion, yeast selection) (log enrichment); library NNK2; higher = more nucleation; inactive = no reads after selection", "method_in_brief": "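After 24 hours of induction with 100 μM copper sulfate, psi-negative yeast expressing peptides of 20 random codons fused to Sup35N were grown for 7 days at 30°C on medium lacking adenine and uracil. Input and output plasmid inserts were sequenced with Illumina, and sequences with under 100 input reads were discarded. Scores for nucleation are the DiMSum log enrichment of output over input reads, centred on the mode score of non-aggregating sequences.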"}
{"substance": "VNYLPWLWSMCNRVH", "amyloid nucleation score": "-0.943 ± 0.61"}
{"substance": "HRRCMFQNTAMRHRQWDA", "amyloid nucleation score": "0.841 ± 0.44"}
{"substance": "DKSCLISVMLICLL", "amyloid nucleation score": "5.21 ± 0.059"}
{"substance": "RWMVHAA", "amyloid nucleation score": "-0.251 ± 0.76"}
{"substance": "RQIALCGLI", "amyloid nucleation score": "3.47 ± 0.096"}
{"substance": "LRGMTLFTPVTLTNSNCMVT", "amyloid nucleation score": "0.437 ± 0.18"}
{"substance": "LVHYPIYFLDNGFRHGDWEG", "amyloid nucleation score": "-0.187 ± 0.55"}
{"substance": "PYIWYPISECRGSSSFETYA", "amyloid nucleation score": "0.29 ± 0.74"}
{"substance": "RSSLEKIMIGNFNYVRVKLH", "amyloid nucleation score": "2.28 ± 0.18"}
{"substance": "SWLYIQFFNLVLKTIVGLGV", "amyloid nucleation score": "0.026 ± 1.1"}
{"substance": "LICAL", "amyloid nucleation score": "0.61 ± 0.39"}
{"substance": "GLRSLVHEARCRYKTSTSVK", "amyloid nucleation score": "-0.939 ± 0.55"}
{"substance": "YCMNLKDSTLLILKQPARST", "amyloid nucleation score": "7.045 ± 0.047"}
{"substance": "CARFAN", "amyloid nucleation score": "0.599 ± 0.64"}
{"substance": "PQLHSLCT", "amyloid nucleation score": "-0.214 ± 1"}
{"substance": "GYRVDLIILKFDLWYEY", "amyloid nucleation score": "inactive"}
{"substance": "RVFLSGSWSTHGNFCRLRNV", "amyloid nucleation score": "-0.449 ± 0.41"}
{"substance": "LYIALIFSISHGWCIAFRLT", "amyloid nucleation score": "-0.214 ± 1.1"}
{"substance": "FLSVARPTF", "amyloid nucleation score": "inactive"}
{"substance": "SSLTANGNNSMT", "amyloid nucleation score": "-0.173 ± 0.63"}
{"substance": "FLAGVSVFWSYCDSTNLSNQ", "amyloid nucleation score": "-0.111 ± 0.29"}
{"substance": "PILADGLCIFNR", "amyloid nucleation score": "-0.47 ± 0.34"}
{"substance": "RVPGPVHSSCYTAARFFCPM", "amyloid nucleation score": "1.83 ± 0.14"}
{"substance": "YSNRVTLMSYDIN", "amyloid nucleation score": "inactive"}
{"substance": "ACNSRHHEFMSSKFYSATQL", "amyloid nucleation score": "-1.3 ± 0.78"}
{"substance": "FTNIGSEYDMTGLNEGSSMP", "amyloid nucleation score": "-0.411 ± 0.29"}
{"substance": "MLGRKHSWVA", "amyloid nucleation score": "1.67 ± 0.33"}
{"substance": "SQLYE", "amyloid nucleation score": "1.23 ± 0.44"}
{"substance": "ILRVSGDAERSILFCPCLAI", "amyloid nucleation score": "-0.255 ± 0.25"}
{"substance": "WISNAWLYLWKHR", "amyloid nucleation score": "0.586 ± 0.81"}
{"substance": "LFYRYFLCVTRRTNEYGVL", "amyloid nucleation score": "-1.75 ± 1"}
{"substance": "GIFISISPPIGESSGNLQLN", "amyloid nucleation score": "inactive"}
{"substance": "FWLSSESANYTCFKRYVG", "amyloid nucleation score": "0.25 ± 0.47"}
{"substance": "FDGHLINTFPRADASIAEDN", "amyloid nucleation score": "-0.454 ± 0.41"}
{"substance": "RMSHWLSYWVDKS", "amyloid nucleation score": "0.938 ± 0.57"}
{"substance": "VEFILKVGYAFTATCPCGFW", "amyloid nucleation score": "-0.711 ± 0.79"}
{"substance": "SRSVLSNSDTPTNNAVNCVA", "amyloid nucleation score": "-0.027 ± 0.56"}
{"substance": "SCRSIRYEWRHDTVGRRSTR", "amyloid nucleation score": "3.2 ± 0.064"}
{"substance": "FYLSAFRHVMRASCLDDLSK", "amyloid nucleation score": "inactive"}
{"substance": "MEPSVIRF", "amyloid nucleation score": "-0.271 ± 0.55"}
{"substance": "LGFFKSGVVH", "amyloid nucleation score": "inactive"}
{"substance": "LLLSFTCLRHTGWFFIRRCC", "amyloid nucleation score": "-0.631 ± 0.41"}
{"substance": "SHFVCMWFYYISTWKCS", "amyloid nucleation score": "-0.766 ± 0.48"}
{"substance": "MKLYSISELLFKFLLHSLCA", "amyloid nucleation score": "inactive"}
{"substance": "KNFFSRRTW", "amyloid nucleation score": "2.98 ± 0.14"}
{"substance": "SVFVYYGFQENSAFSIWLAP", "amyloid nucleation score": "-0.96 ± 0.54"}
{"substance": "FREGSSIGFVLPTENVLMT", "amyloid nucleation score": "0.256 ± 1"}
{"substance": "MIPKVFSIRKSVGIYWNAEY", "amyloid nucleation score": "-1.04 ± 0.39"}
{"substance": "KCSSCEF", "amyloid nucleation score": "0.768 ± 0.47"}
{"substance": "TFSWMTPNWRSHYMLDCDPG", "amyloid nucleation score": "-0.502 ± 0.79"}
{"substance": "VPLTPLGENTECLSRARDIT", "amyloid nucleation score": "0.826 ± 0.45"}
{"substance": "CYLMKSFMNLSDRNVFGNVT", "amyloid nucleation score": "-0.295 ± 0.32"}
{"substance": "RNEQMSPCITWVNYPDYLRT", "amyloid nucleation score": "0.909 ± 0.6"}
{"substance": "NDNFLCSAIVFCMAVFRFGW", "amyloid nucleation score": "inactive"}
{"substance": "MHEEP", "amyloid nucleation score": "1.29 ± 0.23"}
{"substance": "NRHRWLYLRMRLYRYLEGVR", "amyloid nucleation score": "1.18 ± 0.47"}
{"substance": "KYRTYPGVGIIGRVDSSLRT", "amyloid nucleation score": "0.741 ± 0.51"}
{"substance": "TFNVYTVSLDVCDYRGGHGL", "amyloid nucleation score": "6.602 ± 0.049"}
{"substance": "PGNNMLFMWYHWGLGCNFLM", "amyloid nucleation score": "-0.059 ± 0.79"}
{"substance": "TSTIYGLTPRFGNMAHSAVV", "amyloid nucleation score": "0.227 ± 0.65"}
{"substance": "AQCAYTTDGFPFLCWRSGTF", "amyloid nucleation score": "0.701 ± 0.6"}
{"substance": "NTSFRGTTTRKSY", "amyloid nucleation score": "-0.233 ± 0.29"}
{"substance": "RRVGLSGRTKMSG", "amyloid nucleation score": "0.048 ± 0.55"}
{"substance": "VNGSIARYGVCFVARCHVIS", "amyloid nucleation score": "0.246 ± 0.45"}
{"substance": "WTDTGMTYLFCNLFWLACGI", "amyloid nucleation score": "5.634 ± 0.03"}
{"substance": "DLSISSLGFQNIVLSHDNGY", "amyloid nucleation score": "-1.13 ± 1.1"}
{"substance": "LRVYKTNTRQDLKLDTIMVG", "amyloid nucleation score": "-1.14 ± 0.34"}
{"substance": "LRVVIHPVRNAGCLGKYGAN", "amyloid nucleation score": "-0.509 ± 0.33"}
{"substance": "IIHSLARFIC", "amyloid nucleation score": "-0.594 ± 0.26"}
{"substance": "RISSSGRP", "amyloid nucleation score": "2.03 ± 0.082"}
{"substance": "CGSRQAA", "amyloid nucleation score": "5.3 ± 0.085"}
{"substance": "LVGWSGLLTDALEFLLSKDV", "amyloid nucleation score": "-0.592 ± 0.76"}
{"substance": "VVNSQQFVGLCSRRSA", "amyloid nucleation score": "0.576 ± 0.42"}
{"substance": "DIMTYPLRSINRRFKGVGRR", "amyloid nucleation score": "4.481 ± 0.039"}
{"substance": "DVYSSVRVNYT", "amyloid nucleation score": "-0.386 ± 0.56"}
{"substance": "RTYEMKAMRVASWQSS", "amyloid nucleation score": "1.9 ± 0.098"}
{"substance": "VWDRITLFCSLLIRVHGLCT", "amyloid nucleation score": "0.269 ± 0.29"}
{"substance": "TIYWECYMDILARSGAMWVW", "amyloid nucleation score": "-1.34 ± 0.49"}
{"substance": "YRMAAVIYIYIIRFSGSCMW", "amyloid nucleation score": "-2.08 ± 0.62"}
{"substance": "PCERPFERFLVLNRFSDSST", "amyloid nucleation score": "0.183 ± 0.62"}
{"substance": "TPDAGMWNYECYIVTVW", "amyloid nucleation score": "-0.615 ± 0.49"}
{"substance": "YNSTLKFLSKLKLVNIIGTV", "amyloid nucleation score": "-1.26 ± 1.1"}
{"substance": "AKSNLVDFYTFWSTIECLTM", "amyloid nucleation score": "-0.808 ± 0.48"}
{"substance": "TANLKDSGQSYFKTRSVWTF", "amyloid nucleation score": "inactive"}
{"substance": "GLSRLTRYNNGNITTHSNWH", "amyloid nucleation score": "-0.074 ± 1.1"}
